The target of experiment [1] is T1, biotinylated WT importin β-Avitag (human, UniProt Q14974 1-876, biotin on the Avitag).
T1 construct: WT human importin β (KPNB1) in pRSET A with C-terminal Avitag; Called WT; Held on neutravidin beads by the biotin; also called biotinylated importin β; importin β-coated beads; source: E. coli BL21DE3, co-expressed with BirA biotin ligase, purified (Ni-NTA)
Description: bead halo assay; biotinylated importin β or biotinylated BSA on neutravidin polystyrene beads; fluorescent prey (200 nM AF488-DPR, Rango) in binding buffer with assay buffer (EDTA, BSA, NaCl, Tween); room temperature, at least 30 min; confocal rim vs. background ratio. The note with it: both partners purified.

In experiment [2] the target is T2, 6His-S-Importin β(1-876), full-length WT human importin β (human, UniProt Q14974 1-876).
T2 construct: human importin β (KPNB1), full length, residues 1-876, expressed from pET30a; Construct from Chi et al., 1997; also called KPNB1; WT importin β (pKW485)
T2 sequence (Q14974 whole entry, the tested form may be a part): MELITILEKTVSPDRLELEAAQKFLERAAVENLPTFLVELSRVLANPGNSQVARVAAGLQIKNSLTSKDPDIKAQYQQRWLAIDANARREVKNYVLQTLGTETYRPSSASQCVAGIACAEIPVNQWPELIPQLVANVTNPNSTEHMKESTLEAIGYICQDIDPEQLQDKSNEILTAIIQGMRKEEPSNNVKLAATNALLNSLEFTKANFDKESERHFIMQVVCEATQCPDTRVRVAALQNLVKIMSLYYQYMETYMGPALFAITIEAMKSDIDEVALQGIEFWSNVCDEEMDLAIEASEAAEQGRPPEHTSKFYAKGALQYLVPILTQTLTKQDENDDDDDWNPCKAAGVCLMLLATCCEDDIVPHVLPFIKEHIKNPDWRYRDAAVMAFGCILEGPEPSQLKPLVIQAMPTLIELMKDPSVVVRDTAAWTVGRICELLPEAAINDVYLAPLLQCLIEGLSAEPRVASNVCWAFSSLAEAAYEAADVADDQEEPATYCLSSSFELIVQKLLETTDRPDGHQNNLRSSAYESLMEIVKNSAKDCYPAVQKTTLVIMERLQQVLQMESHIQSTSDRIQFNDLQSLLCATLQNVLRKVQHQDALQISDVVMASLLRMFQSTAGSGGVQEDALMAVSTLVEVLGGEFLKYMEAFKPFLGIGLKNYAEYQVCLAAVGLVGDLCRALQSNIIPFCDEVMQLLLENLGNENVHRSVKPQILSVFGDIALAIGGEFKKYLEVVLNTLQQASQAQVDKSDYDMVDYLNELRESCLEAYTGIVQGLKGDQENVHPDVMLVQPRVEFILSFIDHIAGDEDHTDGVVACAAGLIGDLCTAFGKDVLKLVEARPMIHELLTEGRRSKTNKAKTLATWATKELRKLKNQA
Description: FRET or BRET; Rango FRET sensor in solution: 20 nM Rango-2/α1 (pK188) and 50 nM importin β (pKW485) in TBS pH 7.4, 0.01% Tween-20, with increasing concentrations of DPR 10-mers or ZZ-RanQ69L-GTP; ratio of acceptor (535 nm) to donor (480 nm) emission; non-linear fit with one binding site. As to conditions: both partners purified. For orientation: BRET reads energy transfer from a luciferase to a nearby fluorophore.

Where no end group is shown, it is not given here.

T1 sequence (Q14974 whole entry): as the sequence (Q14974 whole entry, the tested form may be a part) above

B1: AF488-labeled PR10 (peptide)
peptide: PRPRPRPRPRPRPRPRPRPRKC(Alexa Fluor 488 C5‑maleimide)
notes: poly-PR, 10 repeats, plus C-terminal K and C; also called AF488-PR10; DPR-AF488; source: synthetic peptide (Genscript)
For B1, the “halo intensity (rim vs. background) relative to control beads” value in experiment [1] was roughly 2 fold.

B2: AF488-labeled GR10 (peptide)
peptide: GRGRGRGRGRGRGRGRGRGRKC(Alexa Fluor 488 C5‑maleimide)
notes: poly-GR, 10 repeats, plus C-terminal K and C; also called AF488-GR10; DPR-AF488; source: synthetic peptide (Genscript)
In the case of B2, the “halo intensity (rim vs. background) relative to control beads” value in experiment [1] was roughly 2 fold.

B3: GR10, synthetic poly-glycine-arginine 10-mer dipeptide repeat protein with C-terminal lysine and cysteine (peptide)
peptide: GRGRGRGRGRGRGRGRGRGRKC
notes: C9orf72 repeat-associated non-AUG translation product poly-GR, 10 repeats, plus C-terminal K (solubility) and C (labelling); unlabelled form, used in the FRET, GFP-Trap, sedimentation and import assays; also called poly-GR; R-DPR; source: synthetic peptide (Genscript; 21st Century Biochemicals)
As to B3, the binding result in experiment [2] was “binds”.

B4: PR10, synthetic poly-proline-arginine 10-mer dipeptide repeat protein with C-terminal lysine and cysteine (peptide)
peptide: PRPRPRPRPRPRPRPRPRPRKC
notes: C9orf72 repeat-associated non-AUG translation product poly-PR, 10 repeats, plus C-terminal K and C; unlabelled form; also called R-DPR; source: synthetic peptide (Genscript; 21st Century Biochemicals)
With B4, in experiment [2], the binding result is reported as “binds”.

The values above are taken from PMC7051184, “C9orf72 arginine-rich dipeptide repeat proteins disrupt karyopherin-mediated nuclear import” (eLife, 2020).
